# Experimental data: article PMC9747694
# Molecular target: SARS-CoV-2 XBB.1 S2P spike trimer (SARS-CoV-2)
# Test: SPR; spike captured through its C-terminal His-tag on a CM5 chip with anti-His antibodies (His Capture Kit); serially diluted human ACE2-Fc flowed over; HBS-EP+ buffer; 25°C; Biacore T200, single-cycle mode; 1:1 binding model
# Sequence of human ACE2-Fc protein (from pcDNA3-sACE2-WT(732)-IgG1) (Q9BYF1 18-732): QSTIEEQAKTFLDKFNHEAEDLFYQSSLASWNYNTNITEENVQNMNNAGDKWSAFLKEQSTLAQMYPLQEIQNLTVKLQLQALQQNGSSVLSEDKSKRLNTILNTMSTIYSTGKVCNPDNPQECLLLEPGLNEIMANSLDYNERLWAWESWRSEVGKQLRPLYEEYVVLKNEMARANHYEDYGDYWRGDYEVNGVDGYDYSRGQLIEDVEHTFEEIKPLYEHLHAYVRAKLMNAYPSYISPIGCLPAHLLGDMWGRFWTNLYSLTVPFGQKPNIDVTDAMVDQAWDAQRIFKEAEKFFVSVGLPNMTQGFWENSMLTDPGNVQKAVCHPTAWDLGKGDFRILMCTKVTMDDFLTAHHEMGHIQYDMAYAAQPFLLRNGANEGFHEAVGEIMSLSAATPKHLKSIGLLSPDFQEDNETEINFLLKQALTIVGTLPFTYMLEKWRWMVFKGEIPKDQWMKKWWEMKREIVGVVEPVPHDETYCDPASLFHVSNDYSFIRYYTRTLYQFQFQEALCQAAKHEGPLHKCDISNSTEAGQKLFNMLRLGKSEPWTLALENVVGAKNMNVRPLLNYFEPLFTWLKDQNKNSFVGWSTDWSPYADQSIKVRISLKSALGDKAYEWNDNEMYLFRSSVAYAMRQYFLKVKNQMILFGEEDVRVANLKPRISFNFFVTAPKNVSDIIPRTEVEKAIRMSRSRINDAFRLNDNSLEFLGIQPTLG
substance,measurement,value
human ACE2-Fc protein (from pcDNA3-sACE2-WT(732)-IgG1) (from UniProt Q9BYF1 18-732) (Fc fusion),Kd,2.06 nM
